# Experimental data: publication PMC2139957
# B1: p75NTR (p75 neurotrophin receptor): N32D (protein)
# parent chain: MRRAGAACSAMDRLRLLLLLILGVSSGGAKETCSTGLYTHSGECCKACNLGEGVAQPCGANQTVCEPCLDNVTFSDVVSATEPCKPCTECLGLQSMSAPCVEADDAVCRCAYGYYQDEETGHCEACSVCEVGSGLVFSCQDKQNTVCEECPEGTYSDEANHVDPCLPCTVCEDTERQLRECTPWADAECEEIPGRWIPRSTPPEGSDSTAPSTQEPEVPPEQDLVPSTVADMVTTVMGSSQPVVTRGTTDNLIPVYCSILAAVVVGLVAYIAFKRWNSCKQNKQGANSRPVNQTPPPEGEKLHSDSGISVDSQSLHDQQTHTQTASGQALKGDGNLYSSLPLTKREEVEKLLNGDTWRHLAGELGYQPEHIDSFTHEACPVRALLASWGAQDSATLDALLAALRRIQRADIVESLCSESTATSPV
# Assays:
# [1] = steady-state domain-selective surface biotinylation, immunoblot; conditions: glycan lost; control: ΔBS p75NTR
# [2] = pulse-chase, ER-to-Golgi transport by O-glycan acquisition; conditions: glycan lost; control: native rat p75NTR
Molecule,"localisation_or_trafficking, other: percent apical [1]","localisation_or_trafficking, other: half-time of ER-to-Golgi transport [2]"
p75NTR (p75 neurotrophin receptor): N32D/ΔBS,"no change, <10 vs <10",–
B1,–,"no change, 35–40 vs 35–40"
